# Reference: patent US20240043859A1, “HERBICIDE-RESISTANT PROTEIN, AND GENE AND USE THEREOF” (QINGDAO KINGAGROOT CHEMICAL COMPOUND CO., LTD., priority 2020, published 2024)
# B1: QYD69: AAD-like candidate enzyme; 100.00% identical to US20170211087-0004 (protein)
# chain: MAQTTLQITPTGATLGATVTGVHLATLDDAGFAALHAAWLQHALLIFPGQHLSNDQQITFAKRFGAIERIGGGDIVAISNVKADGTVRQHSPAEWDDMMKVIVGNMAWHADSTYMPVMAQGAVFSAEVVPAVGGRTCFADMRAAYDALDEATRALVHQRSARHSLVYSQSKLGHVQQAGSAYIGYGMDTTATPLRPLVKVHPETGRPSLLIGRHAHAIPGMDAAESERFLEGLVDWACQAPRVHAHQWAAGDVVVWDNRCLLHRAEPWDFKLPRVMWHSRLAGRPETEGAALV
# modifications: Synthetic polypeptide, QYD69, D69
# B2: QYD60: AAD-like candidate enzyme; 100.00% identical to US20160002662-0002 (protein)
# chain: MSPAFDIAPLDATFGAVVTGVKLADLDDAGWLDLQAAWLEYALLVFPDQHLTREQQIAFARRFGPLEFEMAAISNVRPDGSLRVESDNDDMMKILKGNMGWHADSTYMPVQAKGAVFSAEVVPSVGGQTGFADMRAAYDALDEDLKARVETLQARHSLHYSQSKLGHQTKAADGEYSGYGLHDGPVPLRPLVKIHPETGRKSLLIGRHAHAIPGLEPAESERLLQQLIDFACQPPRIYHHDWAPGDAVLWDNRCLLHQATPWDMTQKRIMWHSRIAGDPASETALAH
# modifications: Synthetic polypeptide, QYD60, D60
# B3: QYD68: AAD-like candidate enzyme; 100.00% identical to JP2018506305-0002 (protein)
# chain: MSPAFDIAPLDATFGAVVTGVKLADLDDAGWLDLQAAWLQHALLIFPGQHLSNDQQITFAKRFGAIERIGGGDIVAISNVKADGTVRQHSPAEWDDMMKVIVGNMAWHADSTYMPVMAQGAVFSAEVVPAVGGRTCFADMRAAYDALDEATRALVHQRSARHSLVYSQSKLGHVQQAGSAYIGYGMDTTATPLRPLVKVHPETGRPSLLIGRHAHAIPGMDAAESERFLEGLVDWACQAPRVHAHQWAAGDVVVWDNRCLLHRAEPWDFKLPRVMWHSRLAGRPETEGAALV
# modifications: Synthetic polypeptide, QYD68, D68
# B4: QYD63: AAD-like candidate enzyme; 100.00% identical to US20140179534-0002 (protein)
# chain: MSSLELTPLHPLFAAEARGIDIRQPLSPSEVKQINAAMNRYAVLVWRGQPLTGQQQIDFAKAFGPLDLGLKKVFKRPERLEDERLIDISNVDAEGKVARRDSPKNLSNFANQLWHSDSSFQNPRAAYSMLHALVLPSWGGNTEFAELRAAYDALPERTRSEIEGLRAEHYALHTRILLGDEAYTDDQKKAIPPAVWPLAQTHPGSGRKLLFVGVHAREIIGWPVAEGRMFLSDLLEHATRREFVYTHEWQVGDLVMWDNRSTLHRGRRYDIGERRELRRTTIEDVPEATLMAA
# modifications: Synthetic polypeptide, QYD63, D63
# B5: QYD61: AAD-like candidate enzyme; 100.00% identical to US20190024109-0292 (protein)
# chain: MSVVANPLHPLFAAGVEDIDLREALGSTEVREIERLMDEKSVLVFRGQPLSQDQQIAFARNFGPLEGGFIKVNQRPSRFKYAELADISNVSLDGKVAQRDAREVVGNFANQLWHSDSSFQQPAARYSMLSAVVVPPSGGDTEFCDMRAAYDALPRDLQSELEGLRAEHYALNSRFLLGDTDYSEAQRNAMPPVNWPLVRTHAGSGRKFLFIGAHASHVEGLPVAEGRMLLAELLEHATQREFVYRHRWNVGDLVMWDNRCVLHRGRRYDISARRELRRATTLDDAVV
# modifications: Synthetic polypeptide, QYD61, D61
# B6: QYD71: AAD-like candidate enzyme; 100.00% identical to CN109456986-0002 (protein)
# chain: MPFQVNQLHPIFAAEMFGCDILKPVTDETRNAVEDAMAKYAVLVIRDQAAASDEDQVRFAKAFGPLELPPDLGMSERTRPTRVHPKLYDVSNLDENGNLDKPDTLRRKFAKGNELFHTDSSFNDLPTKWSMLLAHVVTPTGGNTEFVDTRAAYDALSPSMKEQVEPLSVIHSLTYSRERGGLTGTTVFDRAFPPVTQPLVRTSASGRKALYIGAHAATVVGMDEAAGRTLLDKLISDASRPEYIYSHKWLPGDLVIWDNRCTMHRATEYAYMEDRRDLRRATINEFGEDRVGARPI
# modifications: Synthetic polypeptide, QYD71, D71
# B7: QYD64: AAD-like candidate enzyme; 100.00% identical to US20180066275-0002 (protein)
# chain: MSLQLKPLHPVFGAEASGLDLTRPLSDADVRAVNAAMNEHAVLVFRGQPLTAQQQLDFAKHFGPLDIGLKRVFKRPERLEDERLIDISNVDAQGNIARRDSPKNLSNFANQLWHSDSSFMNPRAAYSMLHCVIKPSWGGNTEFADLRHAYDTLDERTKAEIQDLKAEHFALHTRILLGDDAYTDDQKKEIPPAVWPLADTHPGSGRKVLFVGVHAREIIGWPVAEARMYLSDLLEHATRRENVYVHEWTPGDLVIWDNRSTLHRGRRYDITERRELRRTTINDTPEAMLMAA
# modifications: Synthetic polypeptide, QYD64, D64
# B8: QYD67: AAD-like candidate enzyme; 100.00% identical to US20180244732-0002 (protein)
# chain: MSPAFDIAPLDATFGAVVTGVHLATLDDAGFAALHAAWLQHALLIFPGQHLSNDQQITFAKRFGAIERIGGGDIVAISNVKADGTVRQHSPAEWDDMMKVIVGNMAWHADSTYMPVMAQGAVFSAEVVPAVGGRTCFADMRAAYDALDEATRALVHQRSARHSLVYSQSKLGHVQQAGSAYIGYGMDTTATPLRPLVKVHPETGRPSLLIGRHAHAIPGMDAAESERFLEGLVDWACQAPRVHAHQWAAGDVVVWDNRCLLHRAEPWDFKLPRVMWHSRIAGDPASETALAH
# modifications: Synthetic polypeptide, QYD67, D67
# B9: QYD65: AAD-like candidate enzyme; 100.00% identical to CN103013939-0002 (protein)
# chain: MAIAIRQLHPHFVGEVSGVDLRHPLTRDEVAELQAAIDHYAVLVFHDQDIGDEQQLAFALNFGDREKARGGTVTKKEDYRLTTGLNDVSNLGKDGKPLPPDHRTHLFNLGNCLWHSDSSFRPIPAKYSILSARIVNPKGGNTEFADMRAAYDALDEQTKAEIDDLVSEHSLMYSRGSLGFLDYTDEEKKMFKPVRQRLVRTHPAHGRKSLYLSSHAGAVVGMSMPEGRLLLRDLTEHATQPEFVYVHKWRLHDLVMWDNRQTVHRVRRYDQSQPRDMRRATVAGTEPTVAQQAAE
# modifications: Synthetic polypeptide, QYD65, D65
# B10: QYD70: AAD-like candidate enzyme; 100.00% identical to US20190017066-0048 (protein)
# chain: MHAALTPLTNKYRHIDVQPLTGVLGAEITGVDLREPLDDSTWNEILDAFHTYQVIYFPGQAITNEQHIAFSRRFGPVDPVPILKSIEGYPEVQMIRREANESSRYIGDDWHADSTFLDAPPAAVVMRAIEVPEYGGDTGFLSMYSAWETLSPTMQATIEGLNVVHSATKVFGSLYQATNWRFSGTSVKVMDVDAGDRETVHPLVVTHPVTGRRALYCNQVYCQKIQGMTDAESKSLLQFLYEHATQFDFTCRVRWKKDQVLVWDNLCTMHRAVPDYAGKFRYLTRTTVAGDKPSR
# modifications: Synthetic polypeptide, QYD70, D70
# B11: QYD66: AAD-like candidate enzyme; 100.00% identical to US20140194292-0002 (protein)
# chain: MERHAMSNGKQIVRIEPLPGKTFGAVVTGVRLSELDEDTFSLLYREWLQYALLIFPAQYLTDSQQRDAASKFGCLVEGLEAVEISNLLPTGEVRAAPDDDMMKIIRGNMQWHQDNTYMPLQAKGALFSAKRVPSSGGETGFADMRAAWDALDTETQDRLANLSAYHSLAQSQKNLGEDVKSSDSEYIGYGLDVSTVPRRSLLKIHPETDRKTLAVGRHAFGVTGMAEQESTQFVSDLIDFAVADESRTYHHIWSEGDAILWDNRCLMHRACPWNFSQPRVMLHSRIAGDPSTEAALNS
# modifications: Synthetic polypeptide, QYD66, D66
# Assay: Chromogenic reaction of degrading herbicides in bacteria: 2,4-D
# Type: cell-based, Escherichia coli
# Settings: recombinant E. coli expressing the gene, 2,4-D added to the medium; red = phenols
# Description: To transform the plasmids to be tested, an AAD12-expressing plasmid and a blank control plasmid pET15b were respectively transformed into the protein expression E. coli BL21(DE3) strains. A monoclone was selected and inoculated in a 10 ml centrifuge tube with 3 ml LB medium, and cultivated at 37° C., 200 rpm for 6-8 hours. The culture medium was added with 0.1 mM IPTG and 2 mM α-ketoglutaric acid, and then 0.5 mM 2,4-D. The temperature was switched to 28° C. and the cultivation continued overnight. In the next morning, 200 μL of each bacteria solution was taken and centrifuged to precipitate thallus, 180 μL of the supernatant was taken and added in a 96-well plate, and 20 μL of borate buffer of pH 10 was added. Then the mixture was added with 2 μL of 8% potassium ferricyanide and mixed well, followed by adding 2 μL of 2% 4-aminoantipyrine, and placed at room temperature for 5 min to observe the color and detect the A510 value.
# The bacteria solution also appeared red when 2,4-D was directly added into the medium of AAD12-expressing bacteria, as shown in FIG. 1.
# 2,4-D was added into these bacteria solutions of AAD gene-expressing recombinant E. coli and cultivation was continued for color development.
row,Molecule,"Chromogenic reaction of degrading herbicides in bacteria: 2,4-D"
1,B1,Yes
2,B2,Yes
3,B3,Yes
4,B4,Yes
5,B5,Yes
6,B6,Yes
7,B7,Yes
8,B8,Yes
9,B9,Yes
10,B10,Yes
11,B11,Yes
